The values below come from US7807396.

Data set [1] deals with amyloid beta peptide Aβ1-40.
For data set [2], the target named is aggregated amyloid β1-40 pre-coated on 96 well plates (synthetic amyloid plaque, synthaloid).
Data set [3] addresses amyloid beta peptide Aβ1-42.
Data set [4] addresses T1, human β-endorphin1-31, P01189.
T1 chain: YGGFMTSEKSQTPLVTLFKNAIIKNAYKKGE

B1: human neprilysin expressed from a lentiviral construct in primary neuronal cultures of neprilysin deficient mice (protein)
chain: GKSESQMDITDINTPKPKKKQRWTPLEISLSVLVLLLTIIAVTMIALYATYDDGICKSSDCIKSAARLIQNMDATTEPCTDFFKYACGGWLKRNVIPETSSRYGNFDILRDELEVVLKDVLQEPKTEDIVAVQKAKALYRSCINESAIDSRGGEPLLKLLPDIYGWPVATENWEQKYGASWTAEKAIAQLNSKYGKKVLINLFVGTDDKNSVNHVIHIDQPRLGLPSRDYYECTGIYKEACTAYVDFMISVARLIRQEERLPIDENQLALEMNKVMELEKEIANATAKPEDRNDPMLLYNKMTLAQIQNNFSLEINGKPFSWLNFTNEIMSTVNISITNEEDVVVYAPEYLTKLKPILTKYSARDLQNLMSWRFIMDLVSSLSRTYKESRNAFRKALYGTTSETATWRRCANYVNGNMENAVGRLYVEAAFAGESKHVVEDLIAQIREVFIQTLDDLTWMDAETKKRAEEKALAIKERIGYPDDIVSNDNKLNNEYLELNYKEDEYFENIIQNLKFSQSKQLKKLREKVDKDEWISGAAVVNAFYSSGRNQIVFPAGILQPPFFSAQQSNSLNYGGIGMVIGHEITHGFDDNGRNFNKDGDLVDWWTQQSASNFKEQSQCMVYQYGNFSWDLAGGQHLNGINTLGENIADNGGLGQAYRAYQNYIKKNGEEKLLPGLDLNHKQLFFLNFAQVWCGTYRPEYAVNSIKTDVHSPGNFRIIGTLQNSAEFSEAFHCRKNSYMNPEKKCRVW
Regarding B1, the “125I-Aβ1-40 peptide degradation in primary neuronal cultures” value in data set [1] was “neprilysin expressing neuronal cell cultures virtually destroyed all Aβ peptide in comparison to the controls”.

B2: recombinant rat insulysin with an N-terminal His6 affinity tag, expressed in baculovirus-infected Sf9 cells (protein)
chain: MNNPAIQRIEDHIVKSPEDKREYRGLELANGIKVLLISDPTTDKSSAALDVHIGSLSDPPNIPGLSHFCEHMLFLGTKKYPKENEYSQFLSEHAGSSNAFTSGEHTNYYFDVSHEHLEGALDRFAQFFLCPLFDASCKDREVNAVDSEHEKNVMNDAWRLFQLEKATGNPKHPFSKFGTGNKYTLETRPNQEGIDVREELLKFHSTYYSSNLMAICVLGRESLDDLTNLVVKLFSEVENKNVPLPEFPEHPFQEEHLKQLYKIVPIKDIRNLYVTFPIPDLQQYYKSNPGHYLGHLIGHEGPGSLLSELKSKGWVNTLVGGQKEGARGFMFFIINVDLTEEGLLHVEDIILHMFQYIQKLRAEGPQEWVFQECKDLNAVAFRFKDKERPRGYTSKIAGKLHYYPLNGVLTAEYLLEEFRPDLIDMVLDKLRPENVRVAIVSKSFEGKTDRTEQWYGTQYKQEAIPEDVIQKWQNADLNGKFKLPTKNEFIPTNFEILALEKDATPYPALIKDTAMSKLWFKQDDKFFLPKACLNFEFFSPFAYVDPLHCNMAYLYLELLKDSLNEYAYAAELAGLSYDLQNTIYGMYLSVKGYNDKQPILLKKITEKMATFEIDKKRFEIIKEAYMRSLNNFRAEQPHQHAMYYLRLLMTEVAWTKDELKEALDDVTLPRLKAFIPQLLSRLHIEALLHGNITKQAALGVMQMVEDTLIEHAHTKPLLPSQLVRYREVQLPDRGWFVYQRRNEVHNNCGIEIYYQTDMQSTSENMFLELFCQIISEPCFNTLRTKEQLGYIVFSGPRRANGIQGLRFIIQSEKPPHYLESRVEAFLITMEKAIEDMTEEAFQKHIQALAIRRLDKPKKLSAECAKYWGEIISQQYNYDRDNIEVAYLKTLSKDDIIKFYKEMLAVDAPRRHKVSVHVLAREMDSCPVVGEFPSQNDINLSEAPPLPQPEVIHNMTEFKRGLPLFPLVKPHINFMAAKL
As for B2, in data set [2], the “release of radioactivity from 125I-Aβ1-40 first deposited onto synthetic amyloid” value was “After a 24 hr incubation with 5 µg of insulysin no radioactivity was released”. Also, in data set [1], the “prevention of deposition of radiolabeled Aβ1-40 onto synthaloid, 60 minutes preincubation with insulysin (FIG. 9B)” value is reported as 50 ng insulysin is able to prevent the deposition of radiolabeled Aβ1-40 onto the synthetic amyloid; the “prevention of deposition of radiolabeled Aβ1-40 onto synthaloid, insulysin added at zero time (FIG. 9A)” value is 50 ng of insulysin is able to prevent the deposition of radiolabeled Aβ1-40; the “rate of cleavage of 25 µM Aβ1-40” value was 1.2 µmols/min/mg enzyme; the “sparing of neurotoxic effects on primary rat cortical neurons (30 µM Aβ1-40, 48 hrs)” value is “as little as 50 ng of insulysin was effective in sparing the neurotoxic effects of Aβ1-40”. In data set [3], the “sparing of neurotoxic effects on primary rat cortical neurons (25 µM Aβ1-42, 48 hrs)” value is recorded as 500 ng of insulysin was effective in sparing the neurotoxic effects of Aβ1-42. In data set [4], the “specific activity of the recombinant enzyme (disappearance of β-endorphin by HPLC)” value is 2.6 µmols/min/mg.
